Experimental data from PMC3866869.

What was measured:
Assay in all cases: crystal structure; hanging drop; protein in 25 mM HEPES pH 7.5, 150 mM NaCl, 5% glycerol with 5 mM glutamate or 1 mM KA, mixed 1:1 with reservoir (19-27% PEG 4000, 0-9% propan-2-ol, 80 mM sodium acetate); data collected at 100 K; LBD dimer, one (I222) or two (P212121) dimers in the asymmetric unit
[1] = biological target: GluK2 K531A ligand-binding domain (rat) (UniProt P42260)
[2] = biological target: GluK2 K531A-T779G ligand-binding domain (rat) (UniProt P42260)
[3] = biological target: GluK2 R775A ligand-binding domain (rat) (UniProt P42260)

## GluK2 K531A ligand-binding domain (from UniProt P42260 32-544; P42260 667-908) (domain or fragment)
[1]
  stoichiometry N: 2

## GluK2 K531A-T779G ligand-binding domain (from UniProt P42260 32-544; P42260 667-908) (domain or fragment)
[2]
  stoichiometry N: 2

## GluK2 R775A ligand-binding domain (from UniProt P42260 32-544; P42260 667-908) (domain or fragment)
[3]
  stoichiometry N: 2
